Results on 2 variants are retold here after article PMC5095074 (2016).

The labels stand for the following.
B1: GST-E-cadherin-cytoplasmic domain (cd) [human] / Purified β-catenin [not stated] (parent complex)
chain 1: RAVVKEPLLPPEDDTRDNVYYYDEEGGGEEDQDFDLSQLHRGLDARPEVTRNDVAPTLMSVPRYLPRPANPDEIGNFIDENLKAADTDPTAPPYDSLLVFDYEGSGSEAASLSSLNSSESDKDQDYDYLNEWGNRFKKLADMYGGGEDD
chain 2: MATQADLMELDMAMEPDRKAAVSHWQQQSYLDSGIHSGATTTAPSLSGKGNPEEEDVDTSQVLYEWEQGFSQSFTQEQVADIDGQYAMTRAQRVRAAMFPETLDEGMQIPSTQFDAAHPTNVQRLAEPSQMLKHAVVNLINYQDDAELATRAIPELTKLLNDEDQVVVNKAAVMVHQLSKKEASRHAIMRSPQMVSAIVRTMQNTNDVETARCTAGTLHNLSHHREGLLAIFKSGGIPALVKMLGSPVDSVLFYAITTLHNLLLHQEGAKMAVRLAGGLQKMVALLNKTNVKFLAITTDCLQILAYGNQESKLIILASGGPQALVNIMRTYTYEKLLWTTSRVLKVLSVCSSNKPAIVEAGGMQALGLHLTDPSQRLVQNCLWTLRNLSDAATKQEGMEGLLGTLVQLLGSDDINVVTCAAGILSNLTCNNYKNKMMVCQVGGIEALVRTVLRAGDREDITEPAICALRHLTSRHQEAEMAQNAVRLHYGLPVVVKLLHPPSHWPLIKATVGLIRNLALCPANHAPLREQGAIPRLVQLLVRAHQDTQRRTSMGGTQQQFVEGVRMEEIVEGCTGALHILARDVHNRIVIRGLNTIPLFVQLLYSPIENIQRVAAGVLCELAQDKEAAEAIEAEGATAPLTELLHSRNEGVATYAAAVLFRMSEDKPQDYKKRLSVELTSSLFRTEPMAWNETADLGLDIGAQGEPLGYRQDDPSYRSFHSGGYGQDALGMDPMMEHEMGGHHPGADYPVDGLPDLGHAQDLMDGLPPGDSNQLAWFDTDL

The variants in the experiment derive from B1. Description: GST pull-down, immunoblot anti-β-catenin, quantified; purified proteins; mean ± SD of three experiments; parent: 1; read off a plot. (A western blot detects proteins with antibodies after separation by electrophoresis.)
For the variant chain 1 T57E, the ratio to parent is about 0.39.

Take chain 1 T57A: the ratio to parent was about 1.1.
